Measured values taken from patent publication US20260001953A1 (TWIST BIOSCIENCE, published 2026).
Numbering of substitutions follows the chain as printed.

T1: mouse CD117 (mouse, UniProt P05532)
T1 construct: antigen of the Carterra SPR kinetics; also called murine CD117
T1 sequence (receptor, looked up): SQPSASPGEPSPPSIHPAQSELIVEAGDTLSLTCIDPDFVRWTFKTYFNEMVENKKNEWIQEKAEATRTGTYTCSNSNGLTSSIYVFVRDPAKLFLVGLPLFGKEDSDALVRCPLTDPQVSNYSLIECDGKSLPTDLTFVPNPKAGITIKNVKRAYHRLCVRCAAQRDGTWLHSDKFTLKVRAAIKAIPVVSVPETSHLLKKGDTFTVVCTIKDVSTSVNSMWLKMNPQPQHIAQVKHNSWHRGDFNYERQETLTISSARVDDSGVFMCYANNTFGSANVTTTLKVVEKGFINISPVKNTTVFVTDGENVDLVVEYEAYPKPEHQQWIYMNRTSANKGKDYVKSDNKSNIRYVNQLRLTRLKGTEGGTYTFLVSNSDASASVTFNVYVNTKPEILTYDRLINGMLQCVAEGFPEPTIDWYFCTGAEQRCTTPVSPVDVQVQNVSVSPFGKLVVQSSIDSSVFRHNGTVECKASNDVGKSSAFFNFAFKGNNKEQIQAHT

T2: SIGLEC-5 (limits assumed)
T2 construct: also called OB-BP-2
T2 receptor: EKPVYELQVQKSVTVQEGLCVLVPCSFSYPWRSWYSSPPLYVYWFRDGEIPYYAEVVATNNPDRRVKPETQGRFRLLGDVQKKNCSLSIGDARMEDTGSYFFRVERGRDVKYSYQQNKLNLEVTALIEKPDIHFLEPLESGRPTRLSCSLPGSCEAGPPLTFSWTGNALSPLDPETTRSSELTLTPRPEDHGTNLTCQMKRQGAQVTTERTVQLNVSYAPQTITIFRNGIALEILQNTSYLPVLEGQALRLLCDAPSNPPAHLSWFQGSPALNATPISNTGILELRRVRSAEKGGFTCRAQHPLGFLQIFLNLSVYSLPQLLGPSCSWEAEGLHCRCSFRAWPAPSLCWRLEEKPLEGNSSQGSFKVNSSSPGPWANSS

B1: SIGLEC-8-7 (antibody, human IgG1, kappa, V domains shown)
VH: EVQLLESGGGLVQPGGSLRLSCAASGFTFSNHAMAWVRQAPGKGLEWVSGISGSAASTYYADSVKGRFTISRDNSKNTLYLQMNSLRAEDTAVYYCARDLLALPYAFDIWGQGTLVTVSS
VL: DIQMTQSPSSLSASVGDRVTITCRASQSTSSYLSWYQQKPGKAPKLLIYAVSTLQSGVPSRFSGSGSGTDFTLTISSLQPEDFATYYCQQSYSVPLTFGGGTKVEIKR
notes: tested as expressed and purified mAb
B2: SIGLEC-8-32 (antibody, human IgG1, kappa, V domains shown)
VH: EVQLLESGGGLVQPGGSLRLSCAASGFTLSSYVMSWVRQAPGKGLEWVSAISGSGATTYYADSVKGRFTISRDNSKNTLYLQMNSLRAEDTAVYYCAREVAGIFDYWGQGTLVTVSS
VL: B1 VL with A25S, T29I, S31T, S34N, V51A, T53Y, S93D, V94T
notes: as for B1
B3: SIGLEC-8-56 (antibody, human IgG1, kappa, V domains shown)
VH: EVQLLESGGGLVQPGGSLRLSCAASGLTFSSSAMSWVRQAPGKGLEWVSAISGYGGSTYYADSVKGRFTISRDNSKNTLYLQMNSLRAEDTAVYYCAREAGYYYYGMDVWGQGTLVTVSS
VL: B1 VL with S28K, T29I, S30T, S34N, V51A, T53S, Q55H, S56D, S93G, V94T
notes: as for B1
B4: SIGLEC-8-19 (antibody, human IgG1, kappa, V domains shown)
VH: EVQLLESGGGLVQPGGSLRLSCAASGFTFRTYDMSWVRQAPGKGLEWVSAISGGGGSTYYADSVKGRFTISRDNSKNTLYLQMNSLRAEDTAVYYCARDSSYRWFSMDVWGQGTLVTVSS
VL: B1 VL with S26G, T29I, S31T, S34N, A50G, V51A, T53K, S91T, S93R, V94T
notes: as for B1
B5: SIGLEC-8-24 (antibody, human IgG1, kappa, V domains shown)
VH: B3 VH with L27F, S32T, Y54T, A100S, G101D, Y103D, Y105F
VL: B1 VL with T29V, L33V, S34N, A50G, V51A, T53S, S56D, L96V
notes: as for B1
B6: SIGLEC-8-8 (antibody, human IgG1, kappa, V domains shown)
VH: EVQLLESGGGLVQPGGSLRLSCAASGFTFNYYALSWVRQAPGKGLEWVSGISGSGGTTFYADSVKGRFTISRDNSKNTLYLQMNSLRAEDTAVYYCARRGGWYSFDIWGQGTLVTVSS
VL: DIQMTQSPSTLSAYVGDRVTITCRASQIISTYLNWYQQKPGKAPKLLIYSASSLQSGVPSRFSGSGSGTDFTLTISSLQPEDFATYYCQQSFSAPDTFGGGTKVEIKR
notes: as for B1
B7: CD117-20 (antibody, human IgG1, kappa, V domains shown)
VH: EVQLLESGGGLVQPGGSLRLSCAASGFTFSSDAMNWVRQAPGKGLEWVSGISGSGGYTYYADSVKGRFTISRDNSKNTLYLQMNSLRAEDTAVYYCARSGNVVGDGMDVWGQGTLVTVSS
VL: DIQMTQSPSSLSASVGDRVTITCRASQNIRRYLNWYQQKPGKAPKLLIYDASTLESGVPSRFSGSGSGTDFTLTISSLQPEDFATYYCQQSHTTPLTFGGGTKVEIKR
notes: detected with anti-human IgG in FACS
B8: CD117-12 (antibody, human IgG1, kappa, V domains shown)
VH: EVQLLESGGGLVQPGGSLRLSCAASGITFSSYAMTWVRQAPGKGLEWVSAISSSGTGTYYADSVKGRFTISRDNSKNTLYLQMNSLRAEDTAVYYCARERAPKDFGSSGYSFDYWGQGTLVTVSS
VL: B7 VL with N28S, R30D, R31I, D50K, T53S, E55Q, H92Y, T94V, L96I
notes: as for B7
B9: CD117-5 (antibody, human IgG1, kappa, V domains shown)
VH: EVQLLESGGGLVQPGGSLRLSCAASGFIFTNYAMSWVRQAPGKGLEWVSAIGGSGSSTYYADSVKGRFTVSRDNSKNTLYLQMNSLRAEDTAVYYCVKGGYSYGDSFDFWGQGTLVTVSS
VL: B7 VL with N28S, I29V, R31N, T53D, E55Q, S91G, H92Y, T93S, L96W
notes: as for B7
B10: CD117-19 (antibody, human IgG1, kappa, V domains shown)
VH: EVQLLESGGGLVQPGGSLRLSCAASGFSFSSYAMSWVRQAPGKGLEWVSAISGTGGNTYYADSVKGRFTISRDNSKNTLYLQMNSLRAEDTAVYYCARRNDFWSDAFDIWGQGTLVTVSS
VL: B7 VL with R30Y, R31T, T53S, E55H, H92Y, T93S, T94S, P95S, L96I
notes: as for B7
B11: CD117-9 (antibody, human IgG1, kappa, V domains shown)
VH: EVQLLESGGGLVQPGGSLRLSCAASGFSFTNYAMSWVRQAPGKGLEWVSSISGSGGSTYYADSVKGRFTISRDNSKNTLYLQMNSLRAEDTAVYYCARGSGSYFGFDFWGQGTLVTVSS
VL: B6 VL with T10S, Y14S, I28G, S30G, S50A, S56P, F92Y, S93R, A94P, D96F
notes: as for B7

Each binder was assayed against T3, Sialic acid-binding immunoglobulin-like lectin 8 (SIGLEC-8), antigen of the Carterra SPR studies (UniProt Q9NYZ4 17-363, limits assumed) (assay: Carterra SPR).
T3 sequence (Q9NYZ4 17-363 limits assumed): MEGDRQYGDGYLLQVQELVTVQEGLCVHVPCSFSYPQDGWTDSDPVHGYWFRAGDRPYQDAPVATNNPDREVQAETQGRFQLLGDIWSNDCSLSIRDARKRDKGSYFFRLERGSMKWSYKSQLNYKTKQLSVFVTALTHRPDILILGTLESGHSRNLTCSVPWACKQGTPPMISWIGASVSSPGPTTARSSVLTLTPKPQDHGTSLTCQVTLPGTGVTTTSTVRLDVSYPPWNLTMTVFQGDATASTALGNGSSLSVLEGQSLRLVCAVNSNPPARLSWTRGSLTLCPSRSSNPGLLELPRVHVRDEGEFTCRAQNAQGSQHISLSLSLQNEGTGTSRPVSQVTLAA
In short: (§1)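 Values are rate constants or dissociation constants for antibodies binding SIGLEC-8, measured by surface plasmon resonance on a Carterra instrument. The antibodies were drawn from synthetic libraries through four rounds of bead-based panning. Clones picked by clonal ELISA were expressed and purified prior to measurement.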

Kd | Binder
1.12 nM | B1
19.2 nM | B2
0.271 nM | B3
4.86 nM | B4
0.822 nM | B5
1.65 nM | B6

These binders were tested against T4, cyno CD117 (Macaca fascicularis, UniProt A0A7N9CP24) (assay: Carterra SPR, cyno CD117).
T4 construct: antigen of the Carterra SPR kinetics; also called cynomolgus monkey CD117
T4 sequence (A0A7N9CP24 entry or part of it): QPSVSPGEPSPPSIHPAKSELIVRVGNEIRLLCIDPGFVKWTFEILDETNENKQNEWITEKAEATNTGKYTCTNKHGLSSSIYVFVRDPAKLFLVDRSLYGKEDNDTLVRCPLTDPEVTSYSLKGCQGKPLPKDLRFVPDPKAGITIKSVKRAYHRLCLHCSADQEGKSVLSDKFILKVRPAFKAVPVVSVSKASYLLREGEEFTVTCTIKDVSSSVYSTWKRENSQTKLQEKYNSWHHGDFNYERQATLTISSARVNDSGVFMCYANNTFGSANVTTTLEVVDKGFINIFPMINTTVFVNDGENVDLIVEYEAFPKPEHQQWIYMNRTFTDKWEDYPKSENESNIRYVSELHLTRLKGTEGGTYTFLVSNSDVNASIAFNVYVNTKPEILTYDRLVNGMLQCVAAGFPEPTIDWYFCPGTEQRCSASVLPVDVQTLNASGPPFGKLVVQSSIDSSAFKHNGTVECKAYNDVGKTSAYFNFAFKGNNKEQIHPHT
Experimental: (§2) To further evaluate the antibodies discovered during the screens, 21 clones were selected for detailed characterization and were analyzed for target binding kinetics by a Carterra SPR instrument. The binding kinetics of the anti-CD117 antibodies for human CD117, cynomolgus monkey CD117, and murine CD117 are shown in FIG. 29A-29B.

Kd | koff | kon | Binder
4120 nM | 0.298 s⁻¹ | 72200 M⁻¹ s⁻¹ | B7
5190 nM | 0.201 s⁻¹ | 38700 M⁻¹ s⁻¹ | B8
2390 nM | 0.211 s⁻¹ | 88300 M⁻¹ s⁻¹ | B9
20.8 nM | 0.0272 s⁻¹ | 1.31e+06 M⁻¹ s⁻¹ | B10
15.7 nM | 0.0108 s⁻¹ | 685000 M⁻¹ s⁻¹ | B11

Each binder was assayed against T5, Cluster of differentiation 117 (CD117), antigen of epitope binning and ELISA (UniProt P10721 26-520, limits assumed) (assay: Carterra SPR, human CD117).
T5 construct: also called tyrosine-protein kinase KIT; mast/stem cell growth factor receptor (SCFR)
T5 sequence (P10721 26-520 limits assumed): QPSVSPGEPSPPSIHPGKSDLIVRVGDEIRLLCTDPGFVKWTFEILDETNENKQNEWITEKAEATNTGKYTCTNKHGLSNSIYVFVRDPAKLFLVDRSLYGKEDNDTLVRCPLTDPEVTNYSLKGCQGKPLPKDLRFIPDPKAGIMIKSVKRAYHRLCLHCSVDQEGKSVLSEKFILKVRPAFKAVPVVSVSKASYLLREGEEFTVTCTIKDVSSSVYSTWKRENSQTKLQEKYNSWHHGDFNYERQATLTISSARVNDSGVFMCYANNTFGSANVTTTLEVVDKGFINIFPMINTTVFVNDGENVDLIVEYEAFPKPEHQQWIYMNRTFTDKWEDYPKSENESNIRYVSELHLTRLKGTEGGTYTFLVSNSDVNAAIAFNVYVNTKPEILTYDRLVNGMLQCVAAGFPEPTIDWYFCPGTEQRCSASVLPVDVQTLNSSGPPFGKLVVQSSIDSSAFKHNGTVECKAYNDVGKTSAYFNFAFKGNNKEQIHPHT
Experimental: as §2

binding result | Kd | koff | kon | Binder
no binding | – | – | – | B7
– | 187 nM | 0.101 s⁻¹ | 541000 M⁻¹ s⁻¹ | B8
– | 670 nM | 0.201 s⁻¹ | 300000 M⁻¹ s⁻¹ | B9
– | 5.87 nM | 0.00388 s⁻¹ | 662000 M⁻¹ s⁻¹ | B10
– | 9.51 nM | 0.0058 s⁻¹ | 610000 M⁻¹ s⁻¹ | B11

The binders below were run against T1, mouse CD117 (assay: Carterra SPR, mouse CD117).
Experimental: as §2

binding result | Binder
no binding | B7
no binding | B8
no binding | B9
no binding | B10
no binding | B11

These binders were tested against T6, SIGLEC-2 (assay: SPR cross-reactivity table).
T6 construct: also called CD22
T6 sequence (chain, as listed by the source limits assumed): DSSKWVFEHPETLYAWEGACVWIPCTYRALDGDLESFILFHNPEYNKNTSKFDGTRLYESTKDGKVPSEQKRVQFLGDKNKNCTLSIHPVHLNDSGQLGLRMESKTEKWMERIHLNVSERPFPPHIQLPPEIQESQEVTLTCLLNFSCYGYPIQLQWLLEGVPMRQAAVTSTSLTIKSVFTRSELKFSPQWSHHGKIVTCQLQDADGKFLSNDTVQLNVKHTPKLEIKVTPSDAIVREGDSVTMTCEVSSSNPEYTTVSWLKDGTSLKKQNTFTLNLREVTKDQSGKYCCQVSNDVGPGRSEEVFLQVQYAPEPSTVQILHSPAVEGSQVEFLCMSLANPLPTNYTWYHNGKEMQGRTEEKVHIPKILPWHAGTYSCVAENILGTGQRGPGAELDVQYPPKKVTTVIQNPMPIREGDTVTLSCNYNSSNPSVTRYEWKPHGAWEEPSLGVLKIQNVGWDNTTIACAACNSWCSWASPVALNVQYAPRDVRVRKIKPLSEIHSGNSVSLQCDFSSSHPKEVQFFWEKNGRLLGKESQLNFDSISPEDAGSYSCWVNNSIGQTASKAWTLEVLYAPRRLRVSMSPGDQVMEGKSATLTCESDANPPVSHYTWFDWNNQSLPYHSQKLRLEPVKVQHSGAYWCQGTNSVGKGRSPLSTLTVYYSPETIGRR
In short: (§3)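 Clones from synthetic libraries, panned for four rounds using beads and screened by clonal ELISA, were expressed and purified. These anti-SIGLEC-8 antibodies were then checked by surface plasmon resonance on a Carterra instrument for cross-reactivity with related SIGLEC proteins. For each protein tested, a dissociation constant or binding result is given.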

binding result | Kd | Binder
no binding | – | B1
– | 128 nM | B2
– | 43.2 nM | B3
no binding | – | B4
– | 4300 nM | B6

These binders were tested against T7, SIGLEC-3 (assay: SPR cross-reactivity table).
T7 construct: also called CD33
T7 sequence (receptor, as listed by the source limits assumed): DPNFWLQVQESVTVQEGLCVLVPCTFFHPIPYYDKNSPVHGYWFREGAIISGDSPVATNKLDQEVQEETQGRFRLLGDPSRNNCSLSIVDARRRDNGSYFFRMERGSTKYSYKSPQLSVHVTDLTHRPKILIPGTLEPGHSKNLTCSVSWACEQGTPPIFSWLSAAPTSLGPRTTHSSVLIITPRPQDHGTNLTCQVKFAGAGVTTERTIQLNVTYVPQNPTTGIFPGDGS
In short: as §3

binding result | Kd | Binder
no binding | – | B1
– | 60.5 nM | B3
no binding | – | B4
no binding | – | B5
no binding | – | B6

Target: T2, SIGLEC-5
Assay: SPR cross-reactivity table
In short: as §3

Kd | Binder
123 nM | B1
4.2 nM | B2
3.4 nM | B3
14.5 nM | B4
33.7 nM | B5
39.3 nM | B6

These binders were tested against T8, SIGLEC-6 (assay: SPR cross-reactivity table).
T8 construct: also called OB-BP-1
T8 sequence (receptor, as listed by the source limits assumed): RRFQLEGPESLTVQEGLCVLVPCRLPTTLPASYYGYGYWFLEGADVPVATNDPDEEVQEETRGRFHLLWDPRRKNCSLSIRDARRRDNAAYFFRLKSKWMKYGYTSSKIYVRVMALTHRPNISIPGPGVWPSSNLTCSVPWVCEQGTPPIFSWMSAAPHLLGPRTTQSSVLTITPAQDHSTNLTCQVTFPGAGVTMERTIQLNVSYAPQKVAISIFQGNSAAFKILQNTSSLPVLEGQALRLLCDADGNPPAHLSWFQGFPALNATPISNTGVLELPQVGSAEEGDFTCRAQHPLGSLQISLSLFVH
In short: as §3

binding result | Kd | Binder
no binding | – | B1
– | 5.3 nM | B2
– | 1070 nM | B4
no binding | – | B5

These binders were tested against T9, SIGLEC-7 (assay: SPR cross-reactivity table).
T9 construct: also called p75/AIRM1
T9 sequence (receptor, as listed by the source limits assumed): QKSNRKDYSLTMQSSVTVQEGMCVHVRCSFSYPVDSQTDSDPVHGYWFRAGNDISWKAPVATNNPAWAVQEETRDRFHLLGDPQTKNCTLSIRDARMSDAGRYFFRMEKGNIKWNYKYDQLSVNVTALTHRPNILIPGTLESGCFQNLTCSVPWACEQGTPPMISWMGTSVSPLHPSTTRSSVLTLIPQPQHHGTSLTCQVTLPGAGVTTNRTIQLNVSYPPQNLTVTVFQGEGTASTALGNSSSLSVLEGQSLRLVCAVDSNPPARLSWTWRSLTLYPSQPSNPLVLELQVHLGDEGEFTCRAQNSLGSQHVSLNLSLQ
In short: as §3

binding result | Kd | Binder
no binding | – | B1
– | 17.4 nM | B2
– | 18 nM | B3
no binding | – | B4
no binding | – | B5
no binding | – | B6

The binders below were run against T3, Sialic acid-binding immunoglobulin-like … (assay: Carterra SPR kinetics, summary table).
In short: as §1

koff | kon | Binder
0.000156 s⁻¹ | 576000 M⁻¹ s⁻¹ | B3
0.000194 s⁻¹ | 236000 M⁻¹ s⁻¹ | B5

These binders were tested against T10, CD117 transiently expressed on Expi293 cells (UniProt P10721 26-976, limits assumed) (assay: FACS, MFI expressing / parental cells).
T10 construct: whole, on cells; Two cassettes are described (P2A mVenus and direct mVenus fusion); also called CD117 transient cells; the transient cell line
T10 sequence (P10721 26-976 limits assumed): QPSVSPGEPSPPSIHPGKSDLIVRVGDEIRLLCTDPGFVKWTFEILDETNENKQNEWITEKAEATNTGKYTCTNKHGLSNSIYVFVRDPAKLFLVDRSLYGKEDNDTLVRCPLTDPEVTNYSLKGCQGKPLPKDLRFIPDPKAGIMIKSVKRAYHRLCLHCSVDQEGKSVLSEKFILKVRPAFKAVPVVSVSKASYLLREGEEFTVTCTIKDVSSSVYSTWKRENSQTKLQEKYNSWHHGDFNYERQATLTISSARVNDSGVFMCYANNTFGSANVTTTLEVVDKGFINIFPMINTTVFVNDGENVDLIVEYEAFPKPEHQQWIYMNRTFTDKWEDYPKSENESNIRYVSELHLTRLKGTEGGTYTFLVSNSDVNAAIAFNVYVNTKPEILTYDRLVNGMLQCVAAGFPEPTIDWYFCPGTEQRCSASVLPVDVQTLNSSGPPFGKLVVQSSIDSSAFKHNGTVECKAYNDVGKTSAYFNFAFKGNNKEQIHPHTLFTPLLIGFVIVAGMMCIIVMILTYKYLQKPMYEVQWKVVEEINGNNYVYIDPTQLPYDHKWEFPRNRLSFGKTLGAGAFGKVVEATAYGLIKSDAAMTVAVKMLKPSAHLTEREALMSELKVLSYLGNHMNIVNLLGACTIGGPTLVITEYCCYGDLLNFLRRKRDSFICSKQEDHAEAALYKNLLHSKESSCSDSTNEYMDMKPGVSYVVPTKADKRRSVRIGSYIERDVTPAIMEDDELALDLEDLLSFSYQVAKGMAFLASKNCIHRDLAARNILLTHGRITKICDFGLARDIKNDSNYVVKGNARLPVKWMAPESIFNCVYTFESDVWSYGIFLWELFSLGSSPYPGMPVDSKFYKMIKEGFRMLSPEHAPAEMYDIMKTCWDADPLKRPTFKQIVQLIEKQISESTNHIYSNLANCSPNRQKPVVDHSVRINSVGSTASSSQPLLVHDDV
Experimental: (§4) The transient expression of CD117 was validated with a control antibody, Expi293 (FIGS. 17A-17B). Expi293, […], was transiently transfected with CD117 48-hours post-transfection. The secondary antibody used was APC Goat anti-human IgG (diluted 1:400). 100,000 cells per well were blocked with 1×PBS+0.5% BSA for 1 hour, stained with 100 μL of the primary antibody for 1 hour, and stained with the secondary antibody for one hour, all with 3× washes in between each staining.

MFI Ratio | Binder
14.4 | B7
10.6 | B8
21.3 | B9
12.9 | B10
29.1 | B11

These binders were tested against T11, SIGLEC-8 transiently expressed on cells (UniProt Q9NYZ4 17-499, limits assumed) (assay: cell binding titration, transient SIGLEC-8 line).
T11 construct: whole, on cells; Two cassettes are described (P2A mVenus and direct mVenus fusion); also called the transient line; pTT5-SIGLEC-8 P2A mVenus
T11 sequence (Q9NYZ4 17-499 limits assumed): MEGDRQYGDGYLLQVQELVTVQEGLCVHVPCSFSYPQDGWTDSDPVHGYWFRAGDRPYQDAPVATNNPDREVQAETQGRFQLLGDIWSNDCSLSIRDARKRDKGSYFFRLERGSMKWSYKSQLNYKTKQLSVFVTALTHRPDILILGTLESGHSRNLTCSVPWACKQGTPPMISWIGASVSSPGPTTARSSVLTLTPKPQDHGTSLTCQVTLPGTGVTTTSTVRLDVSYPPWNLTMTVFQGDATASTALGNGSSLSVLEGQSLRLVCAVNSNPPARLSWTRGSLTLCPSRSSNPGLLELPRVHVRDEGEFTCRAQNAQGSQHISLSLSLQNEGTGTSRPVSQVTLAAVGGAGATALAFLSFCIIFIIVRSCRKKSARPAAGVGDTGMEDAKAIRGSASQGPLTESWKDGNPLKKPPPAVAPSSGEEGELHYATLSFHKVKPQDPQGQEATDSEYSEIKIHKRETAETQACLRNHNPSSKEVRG

EC50 | Binder
0.813 nM | B1
3.81 nM | B2
1.02 nM | B3
1.05 nM | B5
1.3 nM | B6

These binders were tested against T10, CD117 transiently expressed on Expi293 … (assay: FACS cell binding, Expi293 transiently expressing CD117).
Experimental: as §4

EC50 | Binder
6.24 nM | B7
1210 nM | B8
6.88 nM | B9
3.29 nM | B10
1.39 nM | B11
